Experimental data: patent US20110142842A1 (MEDINNOVA, published 2011)

B1: Peptide ID 121 LLMVFVALL (CD2) (peptide)
peptide: LLMVFVALL
B2: Peptide ID 144 YLRPGQAAV (CD18, modified peptide) (peptide)
peptide: YLRPGQAAV
notes: Modified peptide
B3: Peptide ID 147 LLAEVTLAV (CD53, modified peptide) (peptide)
peptide: LLAEVTLAV
notes: Modified peptide
B4: Peptide ID 19 SLFLGILSV (CD20) (peptide)
peptide: SLFLGILSV
notes: also called peptide #19; pep 19
B5: Peptide ID 13 LLDPKLCYL (TCR_TV) (peptide)
peptide: LLDPKLCYL
B6: Peptide ID 125 VLAEASASQ (FLT3) (peptide)
peptide: VLAEASASQ
B7: Peptide ID 118 KLSLGLPGL (CD19) (peptide)
peptide: KLSLGLPGL
B8: Peptide ID 126 LLQRPGLQL (CD64) (peptide)
peptide: LLQRPGLQL
B9: Peptide ID 115 ALYDKTKRI (TdT_TV2) (peptide)
peptide: ALYDKTKRI
B10: Peptide ID 24 SMLDDLRNV (CD18) (peptide)
peptide: SMLDDLRNV
B11: Peptide ID 105 VLWHWLLRT (CD19) (peptide)
peptide: VLWHWLLRT
B12: Peptide ID 25 ILFAFVSSV (FLT3) (peptide)
peptide: ILFAFVSSV
B13: Peptide ID 15 SLYGPGSYL (HA-1) (peptide)
peptide: SLYGPGSYL
B14: Peptide ID 133 FLPDAFVTV (TdT, modified peptide) (peptide)
peptide: FLPDAFVTV
notes: Modified peptide
B15: Peptide ID 130 ILLLVIWKA (CD18) (peptide)
peptide: ILLLVIWKA
B16: Peptide ID 128 SMFHVTLKI (CLL-1) (peptide)
peptide: SMFHVTLKI
B17: Peptide ID 110 VIVGSIIMV (CD53) (peptide)
peptide: VIVGSIIMV
B18: Peptide ID 120 VMNGTDPEL (CD2) (peptide)
peptide: VMNGTDPEL
B19: Peptide ID 137 ELDEELHYV (CD33, modified peptide) (peptide)
peptide: ELDEELHYV
notes: Modified peptide
B20: Peptide ID 30 ALAGVLAIL (MPO) (peptide)
peptide: ALAGVLAIL
B21: Peptide ID 106 HMRPLAIWL (CD19) (peptide)
peptide: HMRPLAIWL
B22: Peptide ID 10 PLWGGIMYI (CD20) (peptide)
peptide: PLWGGIMYI
B23: Peptide ID 143 ALARGLPGV (CD7, modified peptide) (peptide)
peptide: ALARGLPGV
notes: Modified peptide
B24: Peptide ID 26 TLQPPWVSV (CD64) (peptide)
peptide: TLQPPWVSV
B25: Peptide ID 149 ILYPINILV (CD11a, modified peptide) (peptide)
peptide: ILYPINILV
notes: Modified peptide
B26: Peptide ID 29 LLSGFFFFA (CD11a) (peptide)
peptide: LLSGFFFFA
B27: Peptide ID 123 TVQEGLCVL (CD33) (peptide)
peptide: TVQEGLCVL
B28: Peptide ID 14 YLLRVIETL (HA-1) (peptide)
peptide: YLLRVIETL
B29: Peptide ID 140 GLYQGLSTV (TCR_TV, modified peptide) (peptide)
peptide: GLYQGLSTV
notes: Modified peptide
B30: Peptide ID 113 LLLREHNRL (MPO) (peptide)
peptide: LLLREHNRL
B31: Peptide ID 28 LLLPLLLAL (CD7) (peptide)
peptide: LLLPLLLAL
B32: Peptide ID 18 VLDIYGFEV (HA-2) (peptide)
peptide: VLDIYGFEV
B33: Peptide ID 32 SLHSETWEI (CD11a) (peptide)
peptide: SLHSETWEI
B34: Peptide ID 20 SLAQVVMKV (CD11a) (peptide)
peptide: SLAQVVMKV
B35: Peptide ID 116 WMGGVSEPL (MPO) (peptide)
peptide: WMGGVSEPL
B36: Peptide ID 11 SLQSGILTL (CD127) (peptide)
peptide: SLQSGILTL
B37: Peptide ID 127 ALPAALAVI (CD7) (peptide)
peptide: ALPAALAVI
B38: Peptide ID 2 YLKDGWHMV (CD5) (peptide)
peptide: YLKDGWHMV
B39: Peptide ID 141 FLQPLFLVV (HA-1, modified peptide) (peptide)
peptide: FLQPLFLVV
notes: Modified peptide
B40: Peptide ID 23 RLYENRASL (HA-1) (peptide)
peptide: RLYENRASL
B41: Peptide ID 119 LLFIVVLTL (FLT3) (peptide)
peptide: LLFIVVLTL
B42: Peptide ID 129 KLGGDLLRA (CD18) (peptide)
peptide: KLGGDLLRA
B43: Peptide ID 142 LLAPRFLEV (CD50, modified peptide) (peptide)
peptide: LLAPRFLEV
notes: Modified peptide
B44: Peptide ID 132 FLQDTFPQV (CD127, modified peptide) (peptide)
peptide: FLQDTFPQV
notes: Modified peptide
B45: Peptide ID 122 SLTLGNVFV (CD53) (peptide)
peptide: SLTLGNVFV
B46: Peptide ID 111 FVANAIIHL (CD52) (peptide)
peptide: FVANAIIHL
B47: Peptide ID 27 LLMSFFILL (CD53) (peptide)
peptide: LLMSFFILL
B48: Peptide ID 107 YLHVALDLL (MPO) (peptide)
peptide: YLHVALDLL
B49: Peptide ID 16 FLPDAFVTM (TdT) (peptide)
peptide: FLPDAFVTM
B50: Peptide ID 31 KLFTSVFGV (TdT) (peptide)
peptide: KLFTSVFGV
B51: Peptide ID 108 LLFLTPMEV (CD19) (peptide)
peptide: LLFLTPMEV
B52: Peptide ID 135 LLQPFMFRV (MPO, modified peptide) (peptide)
peptide: LLQPFMFRV
notes: Modified peptide
B53: Peptide ID 22 SLWRRPFNV (MPO) (peptide)
peptide: SLWRRPFNV
B54: Peptide ID 117 CMAGARVQV (CD50) (peptide)
peptide: CMAGARVQV
B55: Peptide ID 138 LLLSGAARV (PR3, modified peptide) (peptide)
peptide: LLLSGAARV
notes: Modified peptide
B56: Peptide ID 12 FLVNTVLWV (CD64) (peptide)
peptide: FLVNTVLWV
B57: Peptide ID 148 LLWAGALAV (CD33, modified peptide) (peptide)
peptide: LLWAGALAV
notes: Modified peptide
B58: Peptide ID 114 ALAVISFLL (CD7) (peptide)
peptide: ALAVISFLL
B59: Peptide ID 150 ELLDVSWLV (TdT, modified peptide) (peptide)
peptide: ELLDVSWLV
notes: Modified peptide
B60: Peptide ID 1 YLLDGILFI (TCR_TV) (peptide)
peptide: YLLDGILFI
B61: Peptide ID 21 YLMDLSYSM (CD18) (peptide)
peptide: YLMDLSYSM
B62: Peptide ID 124 SLFAAISGM (CD20) (peptide)
peptide: SLFAAISGM
B63: Peptide ID 145 SLSEEVTYV (CLL-1, modified peptide) (peptide)
peptide: SLSEEVTYV
notes: Modified peptide
B64: Peptide ID 146 GLADVAVGV (CD11a, modified peptide) (peptide)
peptide: GLADVAVGV
notes: Modified peptide
B65: Peptide ID 136 LLIPAGIYV (CD20, modified peptide) (peptide)
peptide: LLIPAGIYV
notes: Modified peptide
B66: Peptide ID 134 YLMDLSYSV (CD18, modified peptide) (peptide)
peptide: YLMDLSYSV
notes: Modified peptide
B67: Peptide ID 3 ILLWEIFSL (FLT3) (peptide)
peptide: ILLWEIFSL
B68: Peptide ID 109 KIVEWDWKI (CD48) (peptide)
peptide: KIVEWDWKI
B69: Peptide ID 112 RLLFFLLFL (CD19) (peptide)
peptide: RLLFFLLFL

Biological target: HLA-A*0201 (human, UniProt A*02:01)
Experiment: REVEAL MHC binding assay (ProImmune)

Row | Binder | % Pass/fail control
1 | B1 | 114 % of pass/fail control
2 | B2 | 227 % of pass/fail control
3 | B3 | 254 % of pass/fail control
4 | B4 | 160 % of pass/fail control
5 | B5 | 204 % of pass/fail control
6 | B6 | 103 % of pass/fail control
7 | B7 | 209 % of pass/fail control
8 | B8 | 231 % of pass/fail control
9 | B9 | 260 % of pass/fail control
10 | B10 | 251 % of pass/fail control
11 | B11 | 337 % of pass/fail control
12 | B12 | 221 % of pass/fail control
13 | B13 | 198 % of pass/fail control
14 | B14 | 204 % of pass/fail control
15 | B15 | 56.7 % of pass/fail control
16 | B16 | 307 % of pass/fail control
17 | B17 | 113 % of pass/fail control
18 | B18 | 200 % of pass/fail control
19 | B19 | 218 % of pass/fail control
20 | B20 | 210 % of pass/fail control
21 | B21 | 56.2 % of pass/fail control
22 | B22 | 155 % of pass/fail control
23 | B23 | 297 % of pass/fail control

Row | Binder | % Pass/fail control
24 | B24 | 197 % of pass/fail control
25 | B25 | 321 % of pass/fail control
26 | B26 | 210 % of pass/fail control
27 | B27 | 75.2 % of pass/fail control
28 | B28 | 179 % of pass/fail control
29 | B29 | 214 % of pass/fail control
30 | B30 | 195 % of pass/fail control
31 | B31 | 253 % of pass/fail control
32 | B32 | 161 % of pass/fail control
33 | B33 | 179 % of pass/fail control
34 | B34 | 155 % of pass/fail control
35 | B35 | 199 % of pass/fail control
36 | B36 | 181 % of pass/fail control
37 | B37 | 264 % of pass/fail control
38 | B38 | 182 % of pass/fail control
39 | B39 | 270 % of pass/fail control
40 | B40 | 266 % of pass/fail control
41 | B41 | 114 % of pass/fail control
42 | B42 | 229 % of pass/fail control
43 | B43 | 218 % of pass/fail control
44 | B44 | 216 % of pass/fail control
45 | B45 | 150 % of pass/fail control
46 | B46 | 276 % of pass/fail control

Row | Binder | % Pass/fail control
47 | B47 | 189 % of pass/fail control
48 | B48 | 278 % of pass/fail control
49 | B49 | 164 % of pass/fail control
50 | B50 | 200 % of pass/fail control
51 | B51 | 283 % of pass/fail control
52 | B52 | 329 % of pass/fail control
53 | B53 | 301 % of pass/fail control
54 | B54 | 158 % of pass/fail control
55 | B55 | 210 % of pass/fail control
56 | B56 | 133 % of pass/fail control
57 | B57 | 272 % of pass/fail control
58 | B58 | 221 % of pass/fail control
59 | B59 | 239 % of pass/fail control
60 | B60 | 201 % of pass/fail control
61 | B61 | 198 % of pass/fail control
62 | B62 | 203 % of pass/fail control
63 | B63 | 191 % of pass/fail control
64 | B64 | 213 % of pass/fail control
65 | B65 | 275 % of pass/fail control
66 | B66 | 242 % of pass/fail control
67 | B67 | 199 % of pass/fail control
68 | B68 | 236 % of pass/fail control
69 | B69 | 42.3 % of pass/fail control
